This is an account of results in the supplement of paper PMC10567573.

± gives the standard deviation.

This data set can be described thus: protein stability index of a GFP-peptide fusion (GPS, HEK-293T) (PSI 1-6); higher = more stable.
Where [1] appears, read: treatment: DMSO, c terminus: a fixed tail appended.
Setting [2] is: treatment: MLN4924 1 uM, 8 h, c terminus: a fixed tail appended.
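Further: 24-mer peptide tiles fused after GFP, lentivirally expressed, FACS-sorted into six equal bins by GFP/DsRed ratio, decoded by Illumina sequencing, PSI is the read-weighted mean bin number.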

On to QTESGSEEVSSTVHIETFTTRHGE [C10orf62], for which the protein stability index runs as follows: under setting [1], 5.21 ± 0.3; under setting [2], 5.27 ± 0.34.

QTLQALNFCHIHNCIHRDIKPENI [CDKL4] gave a protein stability index under setting [1] of 2.47 ± 0.28 and a protein stability index under setting [2] of 2.34 ± 0.26.

Take QVAMPYQWEYPYLLSILPSLLGLL [JAGN1]: the protein stability index reads like this: under setting [1], 2.8 ± 0.36; under setting [2], 2.85 ± 0.64.

For the sequence QVDPGTDLEPGVLMSAQTITSETT [EPB41L3], the protein stability index was found to be 5.21 ± 0.32 under setting [1] and 5.16 ± 0.13 under setting [2].

Turning to QVPSGEDQTALSLEECLRLLEATC [NFE2L1], the protein stability index stood at 4.02 ± 0.98 under setting [1] and 3.96 ± 0.31 under setting [2].

As for QWEYPYLLSILPSLLGLLSFPRNN [JAGN1], the protein stability index was 2.85 ± 0.25 under setting [1] and 2.94 ± 0.35 under setting [2].

As for RAACFDGHLEIVKYLVEHKADLEV [FEM1C], the protein stability index is, setting by setting: under setting [1], 2.59 ± 0.31; under setting [2], 2.66 ± 0.58.

On to RADFVLAANSYDLAIKAITSSAKV [FKBP8], for which the protein stability index under setting [1] was 2.72 ± 0.18 and the protein stability index under setting [2] came out at 2.84 ± 0.3.

In turn, RADVDHAIEKAFQLWSNVTPLTFT [MMP1] came in with a protein stability index under setting [1] of 2.13 ± 0.2 and a protein stability index under setting [2] of 2.44 ± 0.32.

On to RAGSQVVATTARHSAAYRADPLRV [FUNDC2], for which the protein stability index reads like this: under setting [1], 3.59 ± 0.22; under setting [2], 3.78 ± 0.17.

In the case of RANRGILQQERQRLGQRQPPPSEP [DNAJC4], the protein stability index was determined as 4.79 ± 0.22 under setting [1] and 4.79 ± 0.087 under setting [2].

With RAVDWWALGILIFEMLSGFPPFFD [PRKX], the protein stability index was determined as 2.99 ± 0.42 under setting [1] and 2.78 ± 0.57 under setting [2].

For the sequence RDNGDPSLSSTATVLLVLEDEDPE [PCDHGC5], the protein stability index by setting is: under setting [1], 4.94 ± 0.36; under setting [2], 5.16 ± 0.12.

Regarding RDQGSSALSGVGGIRLPNGKLKCD [IKZF1], the protein stability index worked out at 4.66 ± 0.33 under setting [1] and 4.68 ± 0.32 under setting [2].

On to RDQHPQPSLGDSLESIPSLSQSPE [RTN2], for which the protein stability index was determined as 5.44 ± 0.18 under setting [1] and 5.55 ± 0.12 under setting [2].

With RDSHGKGIPNAIISVEGINHDIRT [CPXM2], the protein stability index was determined as 4.2 ± 0.21 under setting [1] and 4.17 ± 0.27 under setting [2].

As for RDWWNSTSFSNYYRTWNVVVHDWL [SOAT2], the protein stability index is 2.35 ± 0.34 under setting [1] and 2.26 ± 0.21 under setting [2].

RDYIHSLKLLNVLEEYITDEQKEE [FAM9B] returned a protein stability index under setting [1] of 3.37 ± 0.38 and a protein stability index under setting [2] of 3.52 ± 0.34.

REALTRLQELCYQWLRPHVSTKEQ [ZSCAN9] returned a protein stability index under setting [1] of 1.99 ± 0.24 and a protein stability index under setting [2] of 2.46 ± 0.32.

As to REALVLRSVRVRLLLSFWKETDPL [PLD5], the protein stability index was found to be 2.58 ± 1.1 under setting [1] and 2.38 ± 0.39 under setting [2].

With RELWLKFHEVGTEMIITKAGRRMF [TBX5], the protein stability index amounted to 2.31 ± 0.23 under setting [1] and 2.37 ± 0.31 under setting [2].

For the sequence RENKRMADSLASKVTRLKSLALDI [BET1L], the protein stability index by setting is: under setting [1], 2.63 ± 0.12; under setting [2], 2.7 ± 0.31.

As for RERIQILKTSEVTQHLPRECLPEN [PTPN9], the protein stability index is 4.46 ± 0.19 under setting [1] and 4.36 ± 0.31 under setting [2].

In the case of RERLGEIHTLPLPASLKAYLLYQ [SPSB1], the protein stability index came out at 2.3 ± 0.32 (treatment: DMSO, c terminus: native) and 2.26 ± 0.27 (treatment: MLN4924 1 uM, 8 h, c terminus: native).

As to REWYYGNVTRHQAECALNERGVEG [NCK2], the protein stability index is, setting by setting: under setting [1], 3.33 ± 0.12; under setting [2], 3.68 ± 0.16.

On to RFHGRLLFLKDVLGDEICCWSFYG [KCTD13], for which the protein stability index reads like this: under setting [1], 2.49 ± 0.38; under setting [2], 2.56 ± 0.71.

In turn, RFTGTMDAFVKIVRHEGTRTLWSG [SLC25A39] showed a protein stability index under setting [1] of 2.53 ± 0.52 and a protein stability index under setting [2] of 2.47 ± 0.25.

For RHSNVVILTTSNITEKIDVAFVDR [TRIP13], the protein stability index by setting is: under setting [1], 2.34 ± 0.29; under setting [2], 2.14 ± 0.16.

With RIFKLSRHSKGLQILGQTLKASMR [KCNA1], the protein stability index by setting is: under setting [1], 2.54 ± 0.4; under setting [2], 2.65 ± 0.58.

Turning to RIFRLPNNWYYISPRLTFQCLEDL [SLA], the protein stability index amounted to 2.53 ± 0.28 under setting [1] and 2.38 ± 0.39 under setting [2].

In the case of RIIYQNKCMRNGPNALIASLALGD [EDNRA], the protein stability index reads like this: under setting [1], 2.48 ± 0.18; under setting [2], 2.26 ± 0.21.

Take RKAITEAANAARHVAPEIRELLTQ [PWWP2B]: the protein stability index reads like this: under setting [1], 4.06 ± 0.29; under setting [2], 4.05 ± 0.079.

Take RKDTKEIYTHFTCATDTKNVQFVF [GNAI1]: the protein stability index stood at 2.49 ± 1 under setting [1] and 2.64 ± 0.43 under setting [2].

As for RLCGRQVSRGPGVNVGTTALWKHL [ZBED2], the protein stability index runs as follows: under setting [1], 2.29 ± 0.36; under setting [2], 2.17 ± 0.31.

Consider RLDIVKYLVENNANISIANKYDNT [FEM1B], for which the protein stability index by setting is: under setting [1], 2.5 ± 0.17; under setting [2], 2.64 ± 0.4.

For RLEALSTERDEIEDVKCQEDQKLQ [TRIM15], the protein stability index was determined as 5.21 ± 0.32 under setting [1] and 5.66 ± 0.16 under setting [2].

In turn, RLEDKVKTLKAENAGLSSTAGLLR [JUNB] had a protein stability index under setting [1] of 3.7 ± 0.22 and a protein stability index under setting [2] of 3.97 ± 0.3.

Regarding RLELERKIESLMDEIEFLKKLHEE [PRPH], the protein stability index worked out at 3.32 ± 0.17 under setting [1] and 3.44 ± 0.31 under setting [2].

Regarding RLGPYVLLEPEEGGRAYQALHCPT [TRIB3], the protein stability index under setting [1] amounted to 2.69 ± 0.1 and the protein stability index under setting [2] stood at 2.87 ± 0.38.

For the sequence RLKCRSFKWYLENVYPEMRVYNNT [GALNT9], the protein stability index stood at 2.42 ± 0.17 under setting [1] and 2.19 ± 0.2 under setting [2].

With RLKEYTIKSHSSLPPNNSYADFER [DAPK3], the protein stability index runs as follows: under setting [1], 3.58 ± 0.26; under setting [2], 3.61 ± 0.25.

Consider RLNLTNTKQNFFSQTPILQALQHV [INTS3], for which the protein stability index turned out to be 2.23 ± 0.092 under setting [1] and 2.5 ± 0.17 under setting [2].

In turn, RLVFLAAFVVYLETETLVTREAVT [TSN] came in with a protein stability index under setting [1] of 3.6 ± 0.24 and a protein stability index under setting [2] of 2.82 ± 0.34.

RLVRVFRIFKLSRHSKGLQILGQT [KCNA1]: the protein stability index is, setting by setting: under setting [1], 2.65 ± 0.57; under setting [2], 2.29 ± 0.36.

For the sequence RMGATMAAINSIYSNTDANILFYV [GLT8D2], the protein stability index came out at 2.63 ± 0.59 under setting [1] and 3.14 ± 1.5 under setting [2].

As to RMTISLTVILIESTNEITYGLPIM [CLCN6], the protein stability index by setting is: under setting [1], 2.98 ± 0.3; under setting [2], 3.06 ± 0.092.

In the case of RNLEDIHMSLEKDIAAMTNSLFID [TEKT4], the protein stability index is, setting by setting: under setting [1], 3.29 ± 0.33; under setting [2], 3.33 ± 0.27.

Turning to RNLHSHYHEAPMTRKHYQVTGYGI [POMT2], the protein stability index came out at 2.35 ± 0.15 under setting [1] and 2.46 ± 0.23 under setting [2].

For the sequence RNSLSAIFNNVMTLCAMLPLLLFT [SLC29A1], the protein stability index reads like this: under setting [1], 3.3 ± 0.65; under setting [2], 3.33 ± 0.22.

On to RPRALPCQRSRYRDSLTQPDEEPM [RSPH3], for which the protein stability index came out at 4.62 ± 0.36 under setting [1] and 5.01 ± 0.17 under setting [2].

RPRKLYKHSSTSSRIAKGGVDHTK [BTBD10]: the protein stability index is, setting by setting: under setting [1], 4.06 ± 0.21; under setting [2], 4.12 ± 0.23.

In turn, RRFNFDTDRPLLSTLEESVVRICC [SMG5] displayed a protein stability index under setting [1] of 2.17 ± 0.25 and a protein stability index under setting [2] of 2.19 ± 0.22.

In the case of RSALWCLGLNAAFWFFALTSLRLV [RETREG3], the protein stability index runs as follows: under setting [1], 2.91 ± 0.53; under setting [2], 3.03 ± 0.72.

Sequence RSHSDSLDHDIFQLIDPDENKENE [CDC25A] yielded a protein stability index under setting [1] of 5.14 ± 0.44 and a protein stability index under setting [2] of 5.48 ± 0.2.

Take RSWMFRRGPLNSDRSDYFAAWGAR [TRIM43]: the protein stability index by setting is: under setting [1], 2.5 ± 0.14; under setting [2], 2.62 ± 0.47.

As to RTKVVKPYSTVDNPVYYGPSDFFI [EFHC1], the protein stability index reads like this: under setting [1], 2.35 ± 0.22; under setting [2], 2.42 ± 0.36.

For RTLKSYLGLTNQSRRYNRKEPAEF [ZNF649], the protein stability index reads like this: under setting [1], 3.09 ± 0.31; under setting [2], 3.05 ± 0.48.

For the sequence RTSSGTSREKTACAINKVGVSFST [FAM98B], the protein stability index reads like this: under setting [1], 3.29 ± 0.29; under setting [2], 3.87 ± 0.46.

As to RVKLISNKGTETDNDPSCVHPIIK [PHTF1], the protein stability index reads like this: under setting [1], 3.58 ± 0.16; under setting [2], 3.83 ± 0.35.

Regarding RVPAGIFKHTLSISRALLSDVVPE [MFSD9], the protein stability index is 2.82 ± 0.74 under setting [1] and 3.02 ± 0.22 under setting [2].

Consider RVRLDSELRNVQDVVEDYKKRYEE [KRT71], for which the protein stability index worked out at 4.81 ± 0.28 under setting [1] and 4.97 ± 0.32 under setting [2].

For the sequence RYADLEAVNRARRPLARPIKRGDI [RHOBTB1], the protein stability index reads like this: under setting [1], 3.6 ± 0.4; under setting [2], 3.83 ± 0.12.

On to SAPVETPRGKPPLNTRSQAPLLRW [HMOX1], for which the protein stability index is, setting by setting: under setting [1], 3.64 ± 0.26; under setting [2], 3.72 ± 0.24.

Regarding SASAKRVWNMTATRPKKMGSQLPK [FATE1], the protein stability index runs as follows: under setting [1], 3.76 ± 0.27; under setting [2], 3.79 ± 0.18.

Regarding SCEVSEENCERREAFWAEWKDLTL [TCAP], the protein stability index worked out at 4.16 ± 0.2 under setting [1] and 4.21 ± 0.39 under setting [2].

SDDAAAPALETQPQGDEEDIASRY [SMOC2] showed a protein stability index under setting [1] of 5.62 ± 0.18 and a protein stability index under setting [2] of 5.47 ± 0.11.

Turning to SDSDSELSSSEGLEPGSADPLANG [PSD2], the protein stability index amounted to 5.5 ± 0.35 under setting [1] and 5.59 ± 0.14 under setting [2].

Consider SENIKLREENEKLRLENSSLFSQA [CCDC89], for which the protein stability index reads like this: under setting [1], 4.65 ± 0.08; under setting [2], 4.58 ± 0.2.

Consider SENMWNTGSTYNLSSGMAVAGMPT [CARM1], for which the protein stability index worked out at 3.48 ± 0.15 under setting [1] and 3.63 ± 0.1 under setting [2].

Regarding SFDYEQFHELQMQVTASDSGDPPL [PCDHGA10], the protein stability index reads like this: under setting [1], 4.89 ± 0.21; under setting [2], 4.9 ± 0.15.

Turning to SFFVPRPTPSTPRPTPQDWLHRRA [ADAMTS4], the protein stability index was 3.4 ± 0.21 under setting [1] and 3.4 ± 0.084 under setting [2].

As for SFRAGSKGLSGGFGSRSLYSLGGV [KRT71], the protein stability index amounted to 2.12 ± 0.21 under setting [1] and 2.77 ± 0.33 under setting [2].
